This is an account of results in paper PMC11275766 (bioRxiv, 2024).

In the test the target is ancestral SARS-CoV-2 RBD (recombinant, ELISA antigen) (SARS-CoV-2 ancestral (Wuhan-Hu-1/WA.1), UniProt P0DTC2). The test can be described thus: ELISA. A general note: In an ELISA, binding on a coated surface is turned into a signal by an enzyme label.

B1: M2 mAb (human IgG1) (antibody, V domains shown)
VH: QLQESGPGLVKPSEILSLTCSVSGGSINTNMYYWGWIRQPPGKGLEWIGSIYYSGTTYYNPSLKSRVTMSVDTSENQFSLKLTSVTAADTSVYFCARLPLGERIDYWGRGTLVTVSS
VL: SSDLTQPPSVSVSPGQTASITCSGNKLGDTYVFWYQQKPGQSPVAVINEDNKRPSGIPERFSGSNSGNTATLTISGTQTMDEADYYCQVWDSSQMVFGGGTKLTVL
As to B1, the binding result is on record as “no binding (tested: 30 μg/mL)”.
